Assay results from patent US20250136720A1 (Boehringer Ingelheim, published 2025).

Assays:
[1] = molecular target: T1, Human CD137 on Jurkat cells (human, UniProt Q07011 24-255); test: cell-based or functional assay; parameters: IC90; Jurkat-CD137 NFkB-luciferase, HT1080-FAP co-culture / EC90; Jurkat-CD137 NFkB-luciferase, HT1080-FAP co-culture: unit not given beside the values
[2] = molecular target: T1, Human CD137 on Jurkat cells; test: cell-based or functional assay

EC90; Jurkat-CD137 NFkB-luciferase, HT1080-FAP co-culture [1] | IC90; Jurkat-CD137 NFkB-luciferase, HT1080-FAP co-culture [1] | Total AUC; Jurkat-CD137 NFkB-luciferase, HT1080-FAP co-culture [1] | Average EC50; Jurkat-CD137 NFkB-luciferase, HT1080-FAP co-culture [2] | Average EC90; Jurkat-CD137 NFkB-luciferase, HT1080-FAP co-culture [2] | Average IC50; Jurkat-CD137 NFkB-luciferase, HT1080-FAP co-culture [2] | Average IC90; Jurkat-CD137 NFkB-luciferase, HT1080-FAP co-culture [2] | Ratio IC50/EC50; Jurkat-CD137 NFkB-luciferase, HT1080-FAP co-culture [2] | Ratio IC90/EC90; Jurkat-CD137 NFkB-luciferase, HT1080-FAP co-culture [2] | Binder
0.98 | 54 | 3.18e+07 | 0.166 nM | 1.43 nM | 624 nM | 84.6 nM | 3750 | 59.4 | CD137 #8 (A49.V43) + FAP #5 (C3 VK1/VH4) (bispecific antibody, human IgG1, kappa, L234A L235A) heavy: not shown light: EIVMTQSPLSLPVTPGEPASISCRSSQSLLYSNGYNHLDWYLQKPGQSPQLLIYLGSNRASGVPDRFSGSGSGTDFTLKISRVEAEDVGVYYCMQALQTPPTFGQGTKLEIKRTVAAPSVFIFPPSDEQLKSGTASVVCLLNNFYPREAKVQWKVDNALQSGNSQESVTEQDSKDSTYSLSSTLTLSKADYEKHKVYACEVTHQGLSSPVTKSFNRGEC
3.01 | 93.8 | 7.6e+06 | – | – | – | – | – | – | CD137 #9 (A49.V47) + FAP #2 (A11 VK3/VH3) (bispecific antibody, human IgG1, kappa, L234A L235A) heavy: not shown light: EIVMTQSPLSLPVTPGEPASISCRSSQSLLYSQGYNHLDWYLQKPGQSPQLLIYGGSNRASGVPDRFSGSGSGTDFTLKISRVEAEDVGVYYCMQALQTPPTFGQGTKLEIKRTVAAPSVFIFPPSDEQLKSGTASVVCLLNNFYPREAKVQWKVDNALQSGNSQESVTEQDSKDSTYSLSSTLTLSKADYEKHKVYACEVTHQGLSSPVTKSFNRGEC
2.57 | 137 | 1.13e+07 | – | – | – | – | – | – | CD137 #10 (A49.V48) + FAP #2 (A11 VK3/VH3) (bispecific antibody, human IgG1, kappa, L234A L235A) heavy: not shown light: EIVMTQSPLSLPVTPGEPASISCRSSQSLLYSQGYNHLDWYLQKPGQSPQLLIYGGSNRASGVPDRFSGSGSGTDFTLKISRVEAEDVGVYYCMQALQTPPTFGQGTKLEIKRTVAAPSVFIFPPSDEQLKSGTASVVCLLNNFYPREAKVQWKVDNALQSGNSQESVTEQDSKDSTYSLSSTLTLSKADYEKHKVYACEVTHQGLSSPVTKSFNRGEC
4.23 | 742 | 7.8e+06 | – | – | – | – | – | – | CD137 #9 (A49.V47) + FAP #5 (C3 VK1/VH4) (bispecific antibody, human IgG1, kappa, L234A L235A) heavy: not shown light: EIVMTQSPLSLPVTPGEPASISCRSSQSLLYSQGYNHLDWYLQKPGQSPQLLIYGGSNRASGVPDRFSGSGSGTDFTLKISRVEAEDVGVYYCMQALQTPPTFGQGTKLEIKRTVAAPSVFIFPPSDEQLKSGTASVVCLLNNFYPREAKVQWKVDNALQSGNSQESVTEQDSKDSTYSLSSTLTLSKADYEKHKVYACEVTHQGLSSPVTKSFNRGEC
0.65 | 46.9 | 3.3e+06 | 0.273 nM | 0.738 nM | 888 nM | 84 nM | 3260 | 114 | CD137 #4 (B21.V25) + FAP #2 (A11 VK3/VH3) (bispecific antibody, human IgG1, kappa, L234A L235A) heavy: not shown light: DIQMTQSPSSLSASVGDRVTITCRASQSISTAVAWYQQKPGKAPKLLIYAASYLYSGVPSRFSGSGSGTDFTLTISSLQPEDFAVYYCQQHYSNPWTFGQGTKLEIKRTVAAPSVFIFPPSDEQLKSGTASVVCLLNNFYPREAKVQWKVDNALQSGNSQESVTEQDSKDSTYSLSSTLTLSKADYEKHKVYACEVTHQGLSSPVTKSFNRGEC
0.55 | 53.6 | 4e+06 | 0.153 nM | 1.07 nM | 314 nM | 105 nM | 2060 | 98.1 | CD137 #6 (B21.V37) + FAP #2 (A11 VK3/VH3) (bispecific antibody, human IgG1, kappa, L234A L235A) heavy: not shown light: DIQMTQSPSSLSASVGDRVTITCRASQSISTALAWYQQKPGKAPKLLIYAASYRYSGVPSRFSGSGSGTDFTLTISSLQPEDFAVYYCQQHYSNPWTFGQGTKLEIKRTVAAPSVFIFPPSDEQLKSGTASVVCLLNNFYPREAKVQWKVDNALQSGNSQESVTEQDSKDSTYSLSSTLTLSKADYEKHKVYACEVTHQGLSSPVTKSFNRGEC
0.8 | 35.7 | 3.2e+06 | 0.115 nM | 0.644 nM | 319 nM | 69.2 nM | 2790 | 107 | CD137 #5 (B21.V29) + FAP #5 (C3 VK1/VH4) (bispecific antibody, human IgG1, kappa, L234A L235A) heavy: not shown light: DIQMTQSPSSLSASVGDRVTITCRASQSISTALAWYQQKPGKAPKLLIYAASYRYSGVPSRFSGSGSGTDFTLTISSLQPEDFAVYYCQQHYSNPWTFGQGTKLEIKRTVAAPSVFIFPPSDEQLKSGTASVVCLLNNFYPREAKVQWKVDNALQSGNSQESVTEQDSKDSTYSLSSTLTLSKADYEKHKVYACEVTHQGLSSPVTKSFNRGEC
2.55 | 492 | 2.5e+06 | 0.248 nM | 1.51 nM | 747 nM | 79.2 nM | 3010 | 52.3 | CD137 #4 (B21.V25) + FAP #3 (A11 VK7/VH1) (bispecific antibody, human IgG1, kappa, L234A L235A) heavy: not shown light: DIQMTQSPSSLSASVGDRVTITCRASQSISTAVAWYQQKPGKAPKLLIYAASYLYSGVPSRFSGSGSGTDFTLTISSLQPEDFAVYYCQQHYSNPWTFGQGTKLEIKRTVAAPSVFIFPPSDEQLKSGTASVVCLLNNFYPREAKVQWKVDNALQSGNSQESVTEQDSKDSTYSLSSTLTLSKADYEKHKVYACEVTHQGLSSPVTKSFNRGEC
0.78 | 62.8 | 2.9e+06 | 0.16 nM | 0.883 nM | 444 nM | 86.7 nM | 2780 | 98.1 | CD137 #5 (B21.V29) + FAP #2 (A11 VK3/VH3) (bispecific antibody, human IgG1, kappa, L234A L235A) heavy: not shown light: DIQMTQSPSSLSASVGDRVTITCRASQSISTALAWYQQKPGKAPKLLIYAASYRYSGVPSRFSGSGSGTDFTLTISSLQPEDFAVYYCQQHYSNPWTFGQGTKLEIKRTVAAPSVFIFPPSDEQLKSGTASVVCLLNNFYPREAKVQWKVDNALQSGNSQESVTEQDSKDSTYSLSSTLTLSKADYEKHKVYACEVTHQGLSSPVTKSFNRGEC
0.47 | 13.8 | 3.6e+06 | 0.054 nM | 0.315 nM | 191 nM | 13.8 nM | 3520 | 43.8 | CD137 #6 (B21.V37) + FAP #5 (C3 VK1/VH4) (bispecific antibody, human IgG1, kappa, L234A L235A) heavy: not shown light: DIQMTQSPSSLSASVGDRVTITCRASQSISTALAWYQQKPGKAPKLLIYAASYRYSGVPSRFSGSGSGTDFTLTISSLQPEDFAVYYCQQHYSNPWTFGQGTKLEIKRTVAAPSVFIFPPSDEQLKSGTASVVCLLNNFYPREAKVQWKVDNALQSGNSQESVTEQDSKDSTYSLSSTLTLSKADYEKHKVYACEVTHQGLSSPVTKSFNRGEC
2.34 | 258 | 3.5e+06 | 0.141 nM | 1.43 nM | 756 nM | 165 nM | 5370 | 115 | CD137 #6 (B21.V37) + FAP #3 (A11 VK7/VH1) (bispecific antibody, human IgG1, kappa, L234A L235A) heavy: not shown light: DIQMTQSPSSLSASVGDRVTITCRASQSISTALAWYQQKPGKAPKLLIYAASYRYSGVPSRFSGSGSGTDFTLTISSLQPEDFAVYYCQQHYSNPWTFGQGTKLEIKRTVAAPSVFIFPPSDEQLKSGTASVVCLLNNFYPREAKVQWKVDNALQSGNSQESVTEQDSKDSTYSLSSTLTLSKADYEKHKVYACEVTHQGLSSPVTKSFNRGEC
0.52 | 51.9 | 2.9e+06 | 0.09 nM | 0.671 nM | 347 nM | 52.8 nM | 3840 | 78.6 | CD137 #5 (B21.V29) + FAP #3 (A11 VK7/VH1) (bispecific antibody, human IgG1, kappa, L234A L235A) heavy: not shown light: DIQMTQSPSSLSASVGDRVTITCRASQSISTALAWYQQKPGKAPKLLIYAASYRYSGVPSRFSGSGSGTDFTLTISSLQPEDFAVYYCQQHYSNPWTFGQGTKLEIKRTVAAPSVFIFPPSDEQLKSGTASVVCLLNNFYPREAKVQWKVDNALQSGNSQESVTEQDSKDSTYSLSSTLTLSKADYEKHKVYACEVTHQGLSSPVTKSFNRGEC
